Target: DENV-2 Envelope protein (DENV E dimeric protein) (Dengue virus type 2; strain of the BLI …, UniProt P14340)
Assay: BLI; Octet RED 96, 24 °C, 1,000 rpm; CR3022 (5 µg/ml) loaded on AHC (anti-hIgG Fc capture) sensors; DENV E dimeric protein diluted three-fold from 6,000 nM; 50 mM Tris, 150 mM NaCl, 0.5% glycerol, pH 8.0; global 1:1 fit
Conditions: both partners purified

B1: CR3022, an antibody against the SARS-CoV-2 spike protein (antibody, V domains shown)
VH: EVQLVQSGTEVKKPGESLKISCKGSGYGFITYWIGWVRQMPGKGLEWMGIIYPGDSETRYSPSFQGQVTISADKSINTAYLQWSSLKASDTAIYYCAGGSGISTPMDVWGQGTTVTVSS
VL: not shown
Kd: 2.83 µM

— PMC12852381 (2025)
